Tests used:
FcγRII = conditions: cited from earlier work
[1] = molecular target: γ chain (γ subunit of FcγRI and FcγRIIIA); test: cell-based or functional assay
FcγRIIA [2] = molecular target: FcγRIIA (UniProt P12318); test: cell-based or functional assay
[3] = system: J32/FcγRIIA and J32-3.2/FcγRIIA T-cell transfectants; test: inhibition of sEA phagocytosis in FcγRIIA T-cell transfectants; format: cell-based; conditions: preincubation of the cells in 10 μg/ml
Experimental: The ability of these T-cell transfectants to phagocytose IgG-sensitized cells was assessed by incubation with IgG coated sheep erythrocytes (sEA). In both the wild type J32 and mutant J32-3.2 transfectants, a number of the cells were able to phagocytose the sEA (FIG. 12).
Considering that 70%-100% of the cells are expressing FcγRIIA in these transfectants, and presumably are mediating phagocytosis through this receptor, the levels of phagocytosis observed are relatively low when compared, for example, to COS-1 fibroblasts transfected with FcγRIIA (Indik et al, J. Clin. Invest. 88:1766 (1991)). […] Also phagocytosis was inhibited when the transfectants were incubated with sEA at 0° C. instead of 37° C.

FcγRIIA [4] = molecular target: FcγRIIA (UniProt P12318)
COS-1 cells = test: phagocytosis of IgG-coated cells (EA) by FcγRIIIA-transfected COS-1 cells, electron microscopy; format: cell-based; conditions: COS-1 transfectants
Excerpt: A FcγRIIIA encoding sequence was transfected into COS-1 cells to study its phagocytic function, determined by electron microscopy, in the absence of other Fc receptors. […] To delineate the region of the γ chain important in phagocytosis, two deletion mutants, were constructed, deleting the C-terminal 7 amino acids or deleting the C-terminal 22 amino acids which have a tyrosine containing conserved motif, Y-X2-L-X7-Y-X2-L (SEQ ID NO:10), present in several Ig gene super family receptors. […] The role of the conserved cytoplasmic tyrosines was then examined.
Further, single chain Fcγ receptor chimeras, consisting of the γ cytoplasmic domain and the a extracellular domain with the transmembrane domain of either FcγRIIIA-γ or FcγRI were able to mediate a phagocytic signal. However, single chain chimeras were not sufficient for full phagocytic activity.

[5] = system: murine macrophages (P388D1); test: phagocytosis by WT FcγRI transfected into murine macrophages; format: cell-based
Experimental: Wild type (WT) and a mutant (MT) FcγRI, engineered to omit the cytoplasmic domain (CYT), were transfected into COS cells and murine macrophages (P388D1). The phagocytic potential of the transformed cells was assessed using IgG-coated RBCs (EA) and RBCs conjugated with Fab anti-human FcγR1 mAb (E-mAb). […] However, both WT and MT FcγRI induced phagocytosis in P388D1. Phagocytosis by WT FcγRI was inhibited by the tyrosine kinase inhibitor tyrphostin 23. Furthermore, activation of FcγRI on monocytes with Fab anti-FcγRI induced tyrosine phosphorylation of FcγRII, determined by anti-phosphotyrosine immunoblots. FcγR1 thus mediates a Ca^2+ signal through its cytoplasmic domain but not phagocytosis. FcγRI induced phagocytosis therefore requires elements, present in macrophages but absent in COS cells, that permit transmembrane communication.

[6] = system: splenic macrophage Fcγ receptors; conditions: in vivo; cited from earlier work
[7] = system: IgG sensitized 51Cr-guinea pig RBC (EA); test: splenic macrophage clearance of IgG sensitized 51Cr-guinea pig RBC (EA), established guinea pig model; format: in vivo
Experimental: (§1) Human recombinant macrophage colony stimulating factor (hrM-CSF) was studied in vivo using an established model in the guinea pig (Schreiber et al, J. Clin. Invest. 51:575 (1972)). Adult male guinea pigs were treated for 5 days with hrM-CSF (500 μg/kg) and splenic macrophage FcγR function and protein expression were assessed by i) the splenic macrophage clearance of IgG sensitized ^51Cr-guinea pig RBC (EA), ii) the in vitro binding of EA by isolated splenic macrophage, and iii) FACS analysis using monoclonal antibodies with specificity for the two guinea pig splenic macrophage Fcγ receptors, FcγR1,2 and FcγR2. Treatment with hrM-CSF enchanced the clearance of EA by 72±5%. In addition, a greater proportion of isolated splenic macrophages from hrM-CSF treated animals bound EA in vitro: 80±7% vs 48±4% (sham), p<0.001. In vivo hrM-CSF increased the expression of both splenic macrophages Fcγ receptors: 81±6% and 130±10% for FcγR1,2 and FcγR2, respectively. The lowest effective dose of hrM-CSF was 250 μg/kg, increasing the expression of FcγR1,2 by 26±3% and FcγR2 by 42±4%. […] The effect of hrM-CSF required at least 4 days of treatment.

splenic macrophage = test: in vitro binding of EA by isolated splenic macrophages from treated animals; format: in vivo, guinea pig; conditions: animals treated 500 μg/kg for 5 days; sham 48±4%, p<0.001
Experimental: as §1

FcγR1,2 = test: FACS analysis of splenic macrophage Fcγ receptor expression with monoclonal antibodies; format: in vivo, guinea pig
Experimental: as §1

FcγR2 = test: as above; format: in vivo, guinea pig
Experimental: as §1

FcγRI and FcγRII = conditions: cited from earlier work

## GM-CSF: hematopoietic growth factor, granulocyte-macrophage colony-stimulating factor
FcγRII
  effect on monocyte FcγRII expression and function: selectively increase monocyte FcγRII expression and function

## Syk (enzyme)
[1]
  enhancement of phagocytosis mediated by FcγRI/γ on co-transfection of Syk in COS-1 cells: 8 fold
  enhancement of phagocytosis mediated by FcγRIIIA/γ on co-transfection of Syk in COS-1 cells: 6.1 fold

## IgG on IgG-sensitized sheep red blood cells (EA) (antibody)
FcγRIIA [2]
  % phagocytic cells, J32-3.2/FcγRIIA bulk transfectants, experiment 2: 5%
  % phagocytic cells, J32-3.2/FcγRIIA bulk transfectants, experiment 3: 13%
  % phagocytic cells, J32-3.2/FcγRIIA bulk transfectants, experiment 4: 17%
  % phagocytic cells, J32-3.2/FcγRIIA bulk transfectants, experiment 6: 6%
  % phagocytic cells, J32/FcγRIIA bulk transfectants, experiment 1: 17%
  % phagocytic cells, J32/FcγRIIA bulk transfectants, experiment 2: 33%
  % phagocytic cells, J32/FcγRIIA bulk transfectants, experiment 3: 25%
  % phagocytic cells, J32/FcγRIIA bulk transfectants, experiment 4: 32%
  % phagocytic cells, J32/FcγRIIA bulk transfectants, experiment 5: 31%
  % phagocytic cells, J32/FcγRIIA bulk transfectants, experiment 6: 14%
  corrected phagocytic index (cP1), J32-3.2/FcγRIIA bulk transfectants, experiment 2 (erythrocytes ingested per 100 cells): 7
  corrected phagocytic index (cP1), J32-3.2/FcγRIIA bulk transfectants, experiment 3 (erythrocytes ingested per 100 cells): 21
  corrected phagocytic index (cP1), J32-3.2/FcγRIIA bulk transfectants, experiment 4 (erythrocytes ingested per 100 cells): 24
  corrected phagocytic index (cP1), J32-3.2/FcγRIIA bulk transfectants, experiment 6 (erythrocytes ingested per 100 cells): 9
  percent of cells that phagocytosed EA, FcγRIIA-infected D58 (Src+) cells: 70 percent
  percent of cells that phagocytosed EA, FcγRIIA-infected SAR6 (Src-) cells: 43 percent
  phagocytic index (P1), J32-3.2/FcγRIIA bulk transfectants, experiment 2 (erythrocytes ingested per 100 cells): 6
  phagocytic index (P1), J32-3.2/FcγRIIA bulk transfectants, experiment 3 (erythrocytes ingested per 100 cells): 18
  phagocytic index (P1), J32-3.2/FcγRIIA bulk transfectants, experiment 4 (erythrocytes ingested per 100 cells): 21
  phagocytic index (P1), J32-3.2/FcγRIIA bulk transfectants, experiment 6 (erythrocytes ingested per 100 cells): 8
  phagocytic index (P1), J32/FcγRIIA bulk transfectants, experiment 1 (erythrocytes ingested per 100 cells): 28
  phagocytic index (P1), J32/FcγRIIA bulk transfectants, experiment 2 (erythrocytes ingested per 100 cells): 22
  phagocytic index (P1), J32/FcγRIIA bulk transfectants, experiment 3 (erythrocytes ingested per 100 cells): 40
  phagocytic index (P1), J32/FcγRIIA bulk transfectants, experiment 4 (erythrocytes ingested per 100 cells): 53
  phagocytic index (P1), J32/FcγRIIA bulk transfectants, experiment 5 (erythrocytes ingested per 100 cells): 51
  phagocytic index (P1), J32/FcγRIIA bulk transfectants, experiment 6 (erythrocytes ingested per 100 cells): 21

## C=C1[C@@H](C)[C@H]2[C@H](Cc3ccccc3)NC(=O)[C@]23[C@H](OC(C)=O)/C=C/[C@@](C)(O)C(=O)[C@@H](C)C/C=C/[C@H]3[C@@H]1O [cytochalasin-D]
[3]
  effect on phagocytosis of sEA: abolished phagocytosis

## Src
FcγRIIA [4]
  in vitro immune complex kinase assay: phosphorylation of FcγRIIA: FcγRIIA was phosphorylated by Src in this in vitro assay

## N#CC(C#N)=Cc1ccc(O)c(O)c1 [tyrphostin 23]
COS-1 cells
  effect on FcγRIIIA phagocytosis: reversibly inhibited phagocytosis
[5]
  effect on phagocytosis by WT FcγRI: inhibited

B1: M-CSF: hematopoietic growth factor, macrophage colony stimulating factor (protein, UniProt P09603 33-554, looked up)
Macrophage colony-stimulating …: EEVSEYCSHMIGSGHLQSLQRLIDSQMETSCQITFEFVDQEQLKDPVCYLKKAFLLVQDIMEDTMRFRDNTPNAIAIVQLQELSLRLKSCFTKDYEEHDKACVRTFYETPLQLLEKVKNVFNETKNLLDKDWNIFSKNCNNSFAECSSQDVVTKPDCNCLYPKAIPSSDPASVSPHQPLAPSMAPVAGLTWEDSEGTEGSSLLPGEQPLHTVDPGSAKQRPPRSTCQSFEPPETPVVKDSTIGGSPQPRPSVGAFNPGMEDILDSAMGTNWVPEEASGEASEIPVPQGTELSPSRPGGGSMQTEPARPSNFLSASSPLPASAKGQQPADVTGTALPRVGPVRPTGQDWNHTPQKTDHPSALLRDPPEPGSPRISSLRPQGLSNPSTLSAQPQLSRSHSSGSVLPLGELEGRRSTRDRRSPAEPEGGPASEGAARPLPRFNSVPLTDTGHERQSEGSFSPQLQESVFHLLVPSVILVLLAVGGLLFYRWRRRSHQEPQRADSPLEQPEGSPLTQDDRQVELPV
[6]
  effect on splenic macrophage Fcγ receptors: increase splenic macrophage Fcγ receptors

B2: hrM-CSF: Human recombinant macrophage colony stimulating factor (protein, UniProt P09603 33-554, looked up)
Macrophage colony-stimulating …: EEVSEYCSHMIGSGHLQSLQRLIDSQMETSCQITFEFVDQEQLKDPVCYLKKAFLLVQDIMEDTMRFRDNTPNAIAIVQLQELSLRLKSCFTKDYEEHDKACVRTFYETPLQLLEKVKNVFNETKNLLDKDWNIFSKNCNNSFAECSSQDVVTKPDCNCLYPKAIPSSDPASVSPHQPLAPSMAPVAGLTWEDSEGTEGSSLLPGEQPLHTVDPGSAKQRPPRSTCQSFEPPETPVVKDSTIGGSPQPRPSVGAFNPGMEDILDSAMGTNWVPEEASGEASEIPVPQGTELSPSRPGGGSMQTEPARPSNFLSASSPLPASAKGQQPADVTGTALPRVGPVRPTGQDWNHTPQKTDHPSALLRDPPEPGSPRISSLRPQGLSNPSTLSAQPQLSRSHSSGSVLPLGELEGRRSTRDRRSPAEPEGGPASEGAARPLPRFNSVPLTDTGHERQSEGSFSPQLQESVFHLLVPSVILVLLAVGGLLFYRWRRRSHQEPQRADSPLEQPEGSPLTQDDRQVELPV
[7]; adult male guinea pigs, 500 μg/kg for 5 days
  enhancement of the clearance of EA: 72±5%
[7]; guinea pig
  days of treatment required for the effect: at least 4 days
  lowest effective dose: 0.25 mg/kg
Splenic macrophage
  proportion of isolated splenic macrophages that bound EA in vitro: 80±7%
FcγR1,2; 250 μg/kg
  increase in expression of FcγR1,2: 26±3%
FcγR1,2; 500 μg/kg for 5 days
  increase in expression of splenic macrophage FcγR1,2: 81±6%
FcγR2; 250 μg/kg
  increase in expression of FcγR2: 42±4%
FcγR2; 500 μg/kg for 5 days
  increase in expression of splenic macrophage FcγR2: 130±10%

B3: IFN-γ: the cytokine interferon gamma (protein, UniProt P01579 24-161, looked up)
Interferon gamma: QDPYVKEAENLKKYFNAGHSDVADNGTLFLGILKNWKEESDRKIMQSQIVSFYFKLFKNFKDDQSIQKSVETIKEDMNVKFFNSNKKKRDDFEKLTNYSVTDLNVQRKAIHELIQVMAELSPAAKTGKRKRSQMLFRG
FcγRI and FcγRII
  effect on levels of FcγRI and FcγRII: modulate the levels of FcγRI and FcγRII

Reference: patent US6475997B1, “Methods of stimulating phagocytosis” (University of Pennsylvania, priority 1993, dated 2002)
